# According to the DeepSol protein solubility set:
# Assay: soluble on expression in E. coli; label from the status in PepcDB or PDB records
row,Sequence,soluble on expression in E. coli
1,GSRATVFKLGLFKSLFLCSFHDITRLFKNDKTTNQQWVLAVFGLAEVFFEASFELLKKQCSFLQMQKRSHEGGTCAVYLICFNTAKSRETVRNLMANMLNVREECLMLQPPKIRGLSAALFWFKSSLSPATLKHGALPEWIRAQTTLN,soluble
2,MDNSSQSKPSSSSSSHSPSPAAITPTQRTTRDSGLCSTIDIPEIQAQCIDNLNSHYLGKGTYGLVEKTRYRKTRQDDFRPAAIKYSSQLHMATLIREAKVMWDLRNHPNIIKIYGLYKSPRNGQGVVMEYMDCGSMADLLYDRTHINYTIDHVASWMFQLSSAVDFFHSNSQVHRDLKLQNMLLSDRYRTMKLCDFGTFTSMHQSMTSNRGTPITMAPEVFRCEQYNMKSDIYSIGIIMWQIIARNHPYRRDLSVPGLLYNVATANLRPQELECNPILSEFYKKCWNDNADIRPTSSECVEYFTLLKDEYPNGSVPLSDSSTNGPAETPPPHAHRPTMLGTSSGSGIGSNNRTPTASKLLNPQQPGQGHRRNRSETFVVQPDLPYPTVPGEAGASRIPKSQSEAKNFRDRAKSEQRQPHRDARPPPPFEHRRDSNDEEKHAVFMNICSNEETRPIDPDTRDEKSLEIFHQHCDNNKQYADAWVIKKEVMRAKHELIAQWPQHDHTVELLERKYYLEQEIARYRDIQDDNYFSTERM,not soluble
3,MGFDLFGKIEDILKELPQDKEASVEDFEEERIKNCVPRIHKELREGFSPLEAGVLPYAISLNKGCYVGQEAIARVYFRGRTPRVLTKFEVIEQVKEEEKILEGNKAIGLITSVSPSGKMALGYILRAKFEKGKEYQTESGKVKAKGVCEDGSTLEHHHHHH,not soluble
4,MICNNQREFDNSLKCYQTALVTSQWTVRIRNLNWVLQEKVKSLYVEYQIWRGIDQTNKANPNTLRTNLDQVLAQLETFPTASASPIDSGSAGQLTPFHRSHFHPYKDNKRMRFPSNKEGGLCNSLLSSHYEWC,not soluble
5,MSAEGLDKDFCGAIIPDSFFPIEKLRNYTDMGIIREFAKGSAIIMPGEDTTSMIFLMDGKIKLDIIFEDGSEKLLYYAGSNSLIGRLYPTGNNIYATAMEQTRTCWFSEECLRVIFRTDEDMIFEIFKNYLTKVAYYARQVAEINTYNPTIRILRLFYELCSSQGKRVGDTYEITMPLSQKSIGEITGAHHVTVSKVLACLKKENILDKKKNKFIVYNLEELKHLSEQTSYY,soluble
6,MAKGIPVLEIFGPTIQGEGMVIGQKTMFVRTAGCDYSCSWCDSAFTWDGSAKKDIRWMTAEEIFAELKDIGGDAFSHVTISGGNPALLKQLDAFIELLKENNIRAALETQGTVYQDWFTLIDDLTISPKPPSSKMVTNFQKLDHILTSLQENDRQHAVSLKVVIFNDEDLEFAKTVHKRYPGIPFYLQVGNDDVHTTDDQSLIAHLLGKYEALVDKVAVDAELNLVRVLPQLHTLLWGNKRGV,not soluble
7,MNCRLGCGACCIAPSISSVIPGMPNGKAAGERCVQLSDDNLCLIFGSPERPAVCCDFEASLDVCGHSNEEALWLITNLESQTSLEHHHHHH,not soluble
8,MVYKPLEASDRTELRALQSDRLQRIVTHAHENVPFYREKLDAAGVSPEDIQSIDDITKLPMTTKEDFRDEYPDGLFAVDDEEVARIHASSGTTGKPKIVSYTDDDLDTWSEVVARSLAASGTEAGDTVQNAYGYGLFTGGLGIHYGTEELGASVVPIGSGQTQRQVELMTDLESDVFTCTPSYALYLAETAEEMGHDPRDLPISTIIFGAEPCTDPMREEIEERLGVDGIDIYGLSEIIGPGVSCECHEAKDGLHIWEDHFYPEVIDPHTKEPVEEGEEGELVLTTLTKEALPVFRYRTGDLTTLNYDECACGRTMVRMDNVTGRTDDLLIVRGVNLYPSEIEHAVLDIDGVAPHYRIDLYKEDNLDILELTIERTAEQGPGDKALEDEIIERLENVLAFTPDELELVAPGSIERTQVGKVKRVYDHRD,not soluble
9,MTDVEIKAENGSGDASLEPENLRKIFVGGLTSNTTDDLMREFYSQFGEITDIIVMRDPTTKRSRGFGFVTFSGKTEVDAAMKQRPHIIDGKTVDPKRAVPRDDKNRSESNVSTKRLYVSGVREDHTEDMLTEYFTKYGTVTKSEIILDKATQKPRGFGFVTFDDHDSVDQCVLQKSHMVNGHRCDVRKGLSKDEMSKAQMNRDRETRGGRSRDGQRGGYNGGGGGGGGWGGPAQRGGPGAYGGPGGGGQGGYGGDYGGGWGQQGGGGQGGWGGPQQQQGGGGWGQQGGGGQGGWGGPQQQQQGGWGGPQQGGGGGGWGGQGQQQGGWGGQSGAQQWAHAQGGNRNY,not soluble
